For one molecule, T2 Binding (mean fluorescence intensity) results are on record in US20140287029A1.

In this experiment the target is HLA-A2 molecules on T2 cells (human). Nature of the experiment: T2 cell-binding assay, flow cytometry of HLA-A2 on T2 cells, peptide 25 µg/mL; negative control. The following applies: remark: other sources report otherwise. For orientation: A flow cytometer gives signals particle by particle.

B1: CAP-7 peptide (peptide)
peptide: HLFGYSWYK
Regarding B1, the T2 Binding (mean fluorescence intensity) was 88 MFI.
